Earlier results in article PMC5904127.

Target: apocalmodulin (UniProt P0DP23)

Kd: 2000 nM
Substance: neuromodulin IQ domain (from UniProt P17677)
